Results from IntAct's records for PubMed 14519764.

B1: Metabotropic glutamate receptor 1 (Rattus norvegicus (Rat)), P23385 (parent)
chain: MVRLLLIFFPMIFLEMSILPRMPDRKVLLAGASSQRSVARMDGDVIIGALFSVHHQPPAEKVPERKCGEIREQYGIQRVEAMFHTLDKINADPVLLPNITLGSEIRDSCWHSSVALEQSIEFIRDSLISIRDEKDGLNRCLPDGQTLPPGRTKKPIAGVIGPGSSSVAIQVQNLLQLFDIPQIAYSATSIDLSDKTLYKYFLRVVPSDTLQARAMLDIVKRYNWTYVSAVHTEGNYGESGMDAFKELAAQEGLCIAHSDKIYSNAGEKSFDRLLRKLRERLPKARVVVCFCEGMTVRGLLSAMRRLGVVGEFSLIGSDGWADRDEVIEGYEVEANGGITIKLQSPEVRSFDDYFLKLRLDTNTRNPWFPEFWQHRFQCRLPGHLLENPNFKKVCTGNESLEENYVQDSKMGFVINAIYAMAHGLQNMHHALCPGHVGLCDAMKPIDGRKLLDFLIKSSFVGVSGEEVWFDEKGDAPGRYDIMNLQYTEANRYDYVHVGTWHEGVLNIDDYKIQMNKSGMVRSVCSEPCLKGQIKVIRKGEVSCCWICTACKENEFVQDEFTCRACDLGWWPNAELTGCEPIPVRYLEWSDIESIIAIAFSCLGILVTLFVTLIFVLYRDTPVVKSSSRELCYIILAGIFLGYVCPFTLIAKPTTTSCYLQRLLVGLSSAMCYSALVTKTNRIARILAGSKKKICTRKPRFMSAWAQVIIASILISVQLTLVVTLIIMEPPMPILSYPSIKEVYLICNTSNLGVVAPVGYNGLLIMSCTYYAFKTRNVPANFNEAKYIAFTMYTTCIIWLAFVPIYFGSNYKIITTCFAVSLSVTVALGCMFTPKMYIIIAKPERNVRSAFTTSDVVRMHVGDGKLPCRSNTFLNIFRRKKPGAGNANSNGKSVSWSEPGGRQAPKGQHVWQRLSVHVKTNETACNQTAVIKPLTKSYQGSGKSLTFSDASTKTLYNVEEEDNTPSAHFSPPSSPSMVVHRRGPPVATTPPLPPHLTAEETPLFLADSVIPKGLPPPLPQQQPQQPPPQQPPQQPKSLMDQLQGVVTNFGSGIPDFHAVLAGPGTPGNSLRSLYPPPPPPQHLQMLPLHLSTFQEESISPPGEDIDDDSERFKLLQEFVYEREGNTEEDELEEEEDLPTASKLTPEDSPALTPPSPFRDSVASGSSVPSSPVSESVLCTPPNVTYASVILRDYKQSSSTL

Variants of: B1
Details: with pp1g_rat Ppp1cc

Row | effect of a mutation on the interaction | Variant
1 | decreasing interaction | S892A
